Experimental data: paper PMC8119428, “LSD1-mediated demethylation of OCT4 safeguards pluripotent stem cells by maintaining the transcription of PORE-motif-containing genes”

Target: OCT4 K222F (Homo sapiens, UniProt Q01860 1-360, K222F)
Test: EMSA; homodimer; significantly increased vs WT and other variants; LightShift EMSA: 20 ul, 1.5 ug His-OCT4, 0.5 ug His-SOX2 where used, 50 nM biotin-dsDNA, 1 ul poly(dI-dC), 1x loading buffer (salt and pH not stated), 30 min, 25 C
Conditions: protein: recombinant; tags: His (pET28a); label: 5'-biotin on sense strand; blunt

OCT4 K222F, sequence (Q01860 whole entry K222F): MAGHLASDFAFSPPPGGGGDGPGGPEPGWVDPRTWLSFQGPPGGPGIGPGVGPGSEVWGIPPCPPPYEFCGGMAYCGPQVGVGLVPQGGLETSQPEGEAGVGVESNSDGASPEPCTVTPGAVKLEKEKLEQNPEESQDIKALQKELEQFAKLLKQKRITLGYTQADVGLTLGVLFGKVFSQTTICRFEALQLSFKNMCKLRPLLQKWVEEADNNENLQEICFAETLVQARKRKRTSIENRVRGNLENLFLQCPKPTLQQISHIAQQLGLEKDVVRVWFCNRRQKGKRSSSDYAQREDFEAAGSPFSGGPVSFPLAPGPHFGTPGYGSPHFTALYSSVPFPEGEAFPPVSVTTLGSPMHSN

B1: PORE probe (dsDNA)
DNA 1: TATACTAAGCAATTCTTCATTGATTTGAAATGCAAATTTGACTGGGCACCCTGTATCTT
DNA 2: AAGATACAGGGTGCCCAGTCAAATTTGCATTTCAAATCAATGAAGAATTGCTTAGTATA
B1: binds.
